Results from FireProtDB.

Details: whole UniProt chain shown; for Tm / unfolding enthalpy (calorimetric) / unfolding enthalpy (van 't Hoff) / heat capacity change of unfolding: Thermal
[1] = Bos taurus, pH 7.2, DSC, phosphate 20 mM, reversible: yes (partial)
[2] = Bos taurus, pH 7.4, DSC, potassium phosphate 20 mM, reversible: Yes (65%)
[3] = Bos taurus, pH 6, DSC, Sodium phosphate 50 mM, NaCl 200 mM, reversible: yes
[4] = Bos taurus, pH 6.7, DSC, phosphate 10 mM, MgCl2 0.5 mM, reversible: No
[5] = Bos taurus, pH 7, DSC, Potassium phosphate 67 mM, MgCl2 1 mM
[6] = Comamonas testosteroni, pH 7, 25 °C, Urea, Fluorescence, phosphate 25 mM, reversible: yes

B1: Alpha-crystallin A chain wild type, P02470 (protein)
chain: MDIAIQHPWFKRTLGPFYPSRLFDQFFGEGLFEYDLLPFLSSTISPYYRQSLFRTVLDSGISEVRSDRDKFVIFLDVKHFSPEDLTVKVQEDFVEIHGKHNERQDDHGYISREFHRRYRLPSNVDQSALSCSLSADGMLTFSGPKIPSGVDAGHSERAIPVSREEKPSSAPSS
unfolding free energy (Bos taurus, pH 5, 20 °C, Urea, Fluorescence, Sodium acetate 50 mM): 8.46 kcal/mol
Tm [1]: 45.6 °C
unfolding enthalpy (calorimetric) [1]: 98 kcal/mol
unfolding enthalpy (van 't Hoff) [1]: 91 kcal/mol
Tm [2]: 59.8 °C
heat capacity change of unfolding [2]: 1.36 kcal/mol/K
unfolding enthalpy (calorimetric) [2]: 80.3 kcal/mol
unfolding enthalpy (van 't Hoff) [2]: 78.6 kcal/mol

B2: Ribonuclease pancreatic wild type, P61823 (protein)
chain: MALKSLVLLSLLVLVLLLVRVQPSLGKETAAAKFERQHMDSSTSAASSSNYCNQMMKSRNLTKDRCKPVNTFVHESLADVQAVCSQKNVACKNGQTNCYQSYSTMSITDCRETGSSKYPNCAYKTTQANKHIIVACEGNPYVPVHFDASV
Tm [3]: 47.7 °C
heat capacity change of unfolding [3]: 2 kcal/mol/K
unfolding enthalpy (calorimetric) [3]: 107 kcal/mol

B3: Tubulin--tyrosine ligase wild type, P38584 (protein)
chain: MYTFVVRDENSSVYAEVSRLLLATGHWKRLRRDNPRFNLMLGERNRLPFGRLGHEPGLMQLVNYYRGADKLCRKASLVKLIKTSPELAESCTWFPESYVIYPTNLKTPVAPAQDGIHPPLHSSRTDEREFFLASYNRKKEEGEGNVWIAKSSAGAKGEGILISSDATELLDFIDNQGQVHVIQKYLERPLLLEPGHRKFDIRSWVLVDHQFNIYLYREGVLRTASEPYHMDNFQDKTCHLTNHCIQKEYSKNYGKYEEGNEMFFEAFNRYLTSALNITLESSILLQIKHIIRSCLMSVEPAISTKHLPYQSFQLFGFDFMVDEELKVWLIEVNGAPACAQKLYAELCQGIVDIAIASVFPPPDAEQQPPQPATFIKL
Tm [4]: 54.8 °C
unfolding enthalpy (calorimetric) [4]: 173 kcal/mol

B4: Rhodopsin wild type, P02699 (protein)
chain: MNGTEGPNFYVPFSNKTGVVRSPFEAPQYYLAEPWQFSMLAAYMFLLIMLGFPINFLTLYVTVQHKKLRTPLNYILLNLAVADLFMVFGGFTTTLYTSLHGYFVFGPTGCNLEGFFATLGGEIALWSLVVLAIERYVVVCKPMSNFRFGENHAIMGVAFTWVMALACAAPPLVGWSRYIPEGMQCSCGIDYYTPHEETNNESFVIYMFVVHFIIPLIVIFFCYGQLVFTVKEAAAQQQESATTQKAEKEVTRMVIIMVIAFLICWLPYAGVAFYIFTHQGSDFGPIFMTIPAFFAKTSAVYNPVIYIMMNKQFRNCMVTTLCCGKNPLGDDEASTTVSKTETSQVAPA
Tm [5]: 71.7 °C
unfolding enthalpy (calorimetric) [5]: 172 kcal/mol

B5: Malate dehydrogenase wild type, P80040 (protein)
chain: MRKKISIIGAGFVGSTTAHWLAAKELGDIVLLDFVEGVPQGKALDLYEASPIEGFDVRVTGTNNYADTANSDVIVVTSGAPRKPGMSREDLIKVNADITRACISQAAPLSPNAVIIMVNNPLDAMTYLAAEVSGFPKERVIGQAGVLDAARYRTFIAMEAGVSVEDVQAMLMGGHGDEMVPLPRFSTISGIPVSEFIAPDRLAQIVERTRKGGGEIVNLLKTGSAYYAPAAATAQMVEAVLKDKKRVMPVAAYLTGQYGLNDIYFGVPVILGAGGVEKILELPLNEEEMALLNASAKAVRATLDTLKSL
Tm (Chloroflexus aurantiacus (strain ATCC 29366 / DSM 635 / J-10-fl), pH 7.5, CD, potassium phosphate 10 mM, reversible: No): 67.8 °C

B6: NADP-dependent isopropanol dehydrogenase wild type, P25984 (protein)
chain: MKGFAMLGINKLGWIEKERPVAGSYDAIVRPLAVSPCTSDIHTVFEGALGDRKNMILGHEAVGEVVEVGSEVKDFKPGDRVIVPCTTPDWRSLEVQAGFQQHSNGMLAGWKFSNFKDGVFGEYFHVNDADMNLAILPKDMPLENAVMITDMMTTGFHGAELADIQMGSSVVVIGIGAVGLMGIAGAKLRGAGRIIGVGSRPICVEAAKFYGATDILNYKNGHIVDQVMKLTNGKGVDRVIMAGGGSETLSQAVSMVKPGGIISNINYHGSGDALLIPRVEWGCGMAHKTIKGGLCPGGRLRAEMLRDMVVYNRVDLSKLVTHVYHGFDHIEEALLLMKDKPKDLIKAVVIL
Tm (Clostridium beijerinckii, pH 6.8, CD, Na/K phosphate 50 mM): 65.1 °C

B7: Steroid Delta-isomerase wild type, P00947 (protein)
chain: MNTPEHMTAVVQRYVAALNAGDLDGIVALFADDATVEDPVGSEPRSGTAAIREFYANSLKLPLAVELTQEVRAVANEAAFAFTVSFEYQGRKTVVAPIDHFRFNGAGKVVSMRALFGEKNIHAGA
denaturant m value [6]: 4 kcal/mol/M
unfolding free energy [6]: 22 kcal/mol

B8: Shikimate kinase 2 wild type, P10880 (protein)
chain: MTEPIFMVGARGCGKTTVGRELARALGYEFVDTDIFMQHTSGMTVADVVAAEGWPGFRRRESEALQAVATPNRVVATGGGMVLLEQNRQFMRAHGTVVYLFAPAEELALRLQASPQAHQRPTLTGRPIAEEMEAVLREREALYQDVAHYVVDATQPPAAIVCELMQTMRLPAA
denaturant midpoint (higher = more stable) (Dickeya chrysanthemi, pH 7.6, 25 °C, Urea, Fluorescence, Tris-HCl 35 mM, KCl 5 mM): 2.1 M
